Measured values: paper PMC3991421

Target: hydroxycoumarin-labeled M2 C terminus (…) (influenza A virus)
Test: […]; fluorescence anisotropy, equilibrium; […], in triplicate

Substance: purified LC3 (from UniProt Q9GZQ8 1-120) (natural protein)
- Kd: 9.5 µM
